The DeepSol protein solubility set

Experiment: soluble on expression in E. coli; label from the status in PepcDB or PDB records

Sequence	soluble on expression in E. coli
MGSDKIHHHHHHMQKLQTVNAETLLYEPLEKPSFVVDSLIPTGLSLFCGSQKIGKSWLMLKLCLCVSQGIPLWDMPTMEGDVLYLCLEDTFCRIQDRLFRLTDEASGRLHFAVASCKLSDGLIVQLEDYLKDYPDSRLIVIDTLQKVRTASKDNAYASDYGDISLIKDFADRHSLAVIVVHHIRKQNDSDVFNKVSGTTGLTGSADATFVLEKEKRASDTAKLYVTGRDTPYQEYTLRFRDCRWELVERKTQEQLAKETIPDVLFRLVDFMRDKEEWIGTATELLAAMGETETIPTVITKWLNEYRTTFLSENRICYQYSRRKDGRRIALARRAGDSGDGGDSDIRIPPCYCH	not soluble
MRASEVLQKCLPNSLSGMHALRERALLHAVEALLHGRRLTLMDIARSWPSALRVRAPLKAVDRLLSNRNLQVERSVIDHEMAHWLLRGAQPVIVIDWSDLKPDKSWCLLRAAVPVGGRTLTLLDMVVPGKQQGLEHHHHHH	soluble
MDASTHFRDRGALITGLMSGALDAVDAVARTRPAVEVLGLLVPVDGLMEDYLNGRAREGLGVTRSEFEPWRRQLLAVVAALLERWVGDDADLWRALAMRAGSYCGTVVELVDSVVRPEHADPASWAGRAPRWPRGVDASAVLLALAPPGIAEAFLDDCVTNAAAAGVLTRMLDRGPLHPLFVEYALGSLGTEAMRASLNRNPAYAIAQLRDQVLRERTDIAVLEHAYFAPPTDRALRVGLVRLAEAVGGFRPRFISRLESHAEDIASLEPLLVCSDPQLVHWVLRRVNATLKVPAMRWAAYATLALTAGPEPVWALEQERVGTLSRMAEPVRASMSTGSVAPILAAAGAAPVTIGPAGSAIELGAPLIEPWPYTELICEHVEGDGHRADPVDKPAADRPSSTRLGRSAEV	not soluble
MSLVRQEPLRPDQPLEMGFEYRSAVRTVRTDSTGLIIPAPTARFSLNESPWRSCKGGMMAGMSSLVRIVNAGVPGSQDRVDVVLRDGVVASVGPAGTVSASDGTMQTKAHTTSLAYATNAIASGGVSIPTSASAPADETTIDADGLWVIPGLWDCHTHFTQWVKTLGRLDLINARSAAEAMDMLRRHLDERRAADTLDPDAFVVGMRFRHSLWADDEQPTLAAIDAVTGEQPVALSSADMHCGWVNSAAARRLGVHVDESGLVGELEWFNAYTAFDKAPGAAEETDRLLREAEQDAASKGVVGIRDYEMAENIDTWINRFAAGINGLRVDAGVYPERLRAAIDAGWHTGKELPGSAGLGHVGAMKLISDGSLNTRSAYCSTPYSGIEPLTYGTLSYTPQQIEDYMRLATEHGFDIACHAIGDEANTIALNAVAATHAHGSIEHAQMLKPVDIPRFAELGLTASIQPQHAMDDRDVITRFWANPAGIPYPFRALHDAGTTLRMGSDAPVAPLDPWLAISAAVLGTESSDREPFQPEQCLDVHTSLAASTATGRDRLASGDPADVVLLDADPYAADTPEAMRAMPQHVVMTLLCGERTYEGHHHHHH	not soluble
SLLLKMDAFQDRLGTRGMLVRKGDHDETKVLPAVPVPQVRAANLPAAQAGDARIGTLPALFQALRASLPADEECNGLQAGDAQEPLTVTRLSTDKLLVSTDCWMGAYNVGTGVRVLNARAPFSCQPW	not soluble
MGGLVSRCEAFSSSAEQKLSQGRNTSMDEKTTQTKPSRRPWFWKRIERTELPNPGSYEDINQEASAVLRPNLFDGFRFDFNYPLSAMFSMGHSIEMGSLQKPPGYAFSANYLSNHLVMLSRVDLSGHVNGRVFINHSPFLTSKIVAETSSQPNESKATWDLDYRGSDFCGQLKFGNMGIVALSYLQSVTPNLSLGGEGFYQGATGFSAITAAGRYVTHDGVATCTIASFGPLVASYCHRVNPRVTLATEFFWDLRSRDSLVTIGYKFDLRQATVTGQIDTNGRVAALLEEKINPGLSFLLSGEIDHSRQEYKFGFGVTIGQ	soluble
MAAAVRSVKGLVAVITGGASGLGLSTAKRLVGQGATAVLLDVPNSEGETEAKKLGGNCIFAPANVTSEKEVQAALTLAKEKFGRIDVAVNCAGIAVAIKTYHEKKNQVHTLEDFQRVINVNLIGTFNVIRLVAGVMGQNEPDQGGQRGVIINTASVAAFEGQVGQAAYSASKGGIVGMTLPIARDLAPIGIRVVTIAPGLFATPLLTTLPDTVRNFLASQVPFPSRLGDPAEYAHLVQMVIENPFLNGEVIRLDGAIRMQP	soluble
MPDEKDKHEGTWLQWPHEYTYGEEYKKEVEPIWVKMASALTEGEKVHIVAYDQEEKERINNLLTDEGLNMEKIDFFIAPTDDVWARDSGPIFVYDSNKNLKILDPAFNGWGKKTPYKNDAQIRKNVSKQSGIERVDWGKFVLEGGAIELDSNGTALLTRSAVTNKNRNPDLSEKEIEKYISDLGVSNFIWLDGVPNLDITDFHIDGFAKFHNKSTIVTMKEDDLAEWGLSNKDMDTLLDAKNASGQKYKYEYLPLSKEKVALENGKTLDYKGSYINYYIGNTVVLVPNYNDPNDKIANDTIQKLYPDRKVVGIDVRELYKNGGMIHCVTQQQPIALK	not soluble
MGSDKIHHHHHHMRIRPDRNRGRSAGINPSGRFEPVSRHVFDDGWSSLEELPPFKTEVQVEKPRTIITRNESPDISFDRSINPYRGCEHGCVYCFARPTHAFMGLSPGLDFETKLFAKPDAARLLDKELSKEGYQPRTIAIGTNTDPYQPIEKQYRIMREILEVLEARGHPVGIVTKSALVTRDIDILSRMAERGLAKVALSVTTLDRMLARTMEPRASTPTKRLEAIRQLSDAGIPTSVMVAPIIPGLTDQEMERILDSAYAAGAREAGYVVLRLPLEVSPIFKDWLLRHYPDRYRHVMSLIRSMRDGKDYDSEWGKRMKGAGPYAWQIGRRFEITAKRLGLNIERRTLRTDQFVAAGKDQEQLMLL	not soluble
MQQTTQIQPSFTLKTREGGVASADERADEVVIGVGPAFDKHQHHTLIDMPHGAILKELIAGVEEEGLHARVVRILRTSDVSFMAWDAANLSGSGIGIGIQSKGTTVIHQRDLLPLSNLELFSQAPLLTLETYRQIGKNAARYARKESPSPVPVVNDQMVRPKFMAKAALFHIKETKHVVQDAEPVTLHIDLVRE	soluble
MTETATARRSRITPEREAELYEAVLDLLREVGYDALTMDAVAARTRSSKATLYRQWGGKPELVVKAIRHNKPGEIGDVDTGSLRGDLHALMVREDDCTMEQNSALMRGVAMALHQNPDLRQAFREQLIEPEMAEFQRVLQRAVDRGEIRADCPALDFLVHMMVGGFATRTLLDDQPPTREFLASYIDAVILPALGVSTH	not soluble
MDALQAYGGSDSEHSDDDASMDQVAKGKSSTLLERAIVTAPDVESKSAIRQVAIVDPKTKEIKSNPKFDQLFKPESGPVNHFKSEQQRSQKNTLTGFVEPAHLNEFHFNRQIRSFDTLGYAQNPTAESGTTHFVGDVKKAEAEKGVSLFESKKTGGEKRKRVRNDDSADIDGYTGPWSRFIDEKTVAKPTPELQKQMDEIVKKRQEKSRRFKKEKEDSEQMAEESSTLHLKEAEDYQGRSFLVPPSFTGVNLREDYVPERCFVPKKLVHTYRGHNKGVNFLQWFPKSAHLFLSCSMDTKIKLWEVYDRQRVVRTYAGHKLPVREVAFNNEGTEFLSASFDRYVKLWDTETGQVKQRFHTGHVPYCLKYHPDDDKNHMFLVGMQNKKIIQWDSRSGEIVQEYDRHLQAVNSITFFDKNRRFASTSDDKSVRIWEWEIPVDTKLIQNVGLHAIPTMTKSPNDKWVVGQCMDNRIVLFQLVDDKLRFSKKKAFRGHNAAGYACNIDFSPDQSFLISGDADGKLFIWDWRTHKIVGKWKAHDSTCIAALWHPHEKSRMITAGWDGLIKMWN	soluble
MAHHHHHHMPGIKIEEVISTTKRQRVAAHSHVKGLGLDADGSAKPSADGFVGQVKAREAAGIVVELTRSKKMAGRALLFAGPPGTGKTALALGIAKELGPKVPFCPMVGSEVYSAEVKKTEVLMENFRRAIGLRIKEQKEVYEGEVTELRAEETDNPLGGYGKSIAHVIVTLKSVKGSKQLKLDAAIYESLEKEKVSVGDVIYIEASTGAVKRVGRSDAYIGDHDLEADEYVPLPKGDVHKKKEIIQDVTLHDLDSANAKPNQGQDALSIVNSLMKQKKTEITEKLRHEINKVVNKYIDQGVAELVPGVLFIDEVHMLDIECFTFLNKALESTLAPVVIFATNRGSCRIRGTDIRSPHGIPTDLLDRLLIVRTTNYSIEEIVSIVDIRSQVEGVKVSDASLELLGQIGERTSLRYVVQLLTPALIIAETNGRTVIEAEDVMLVDGLFKDAKASAQLLHEHADEYVYQ	not soluble
MDQSIRHLLGNLSLFTPPEEAAVYAEQHAVNKNEPLYFVVFPQADTALSELLVAGYQKLLENNFWGLTNSTQEAKDLMSRYGNTGLELYAHSRGSMTLGNMLYSFQQQGVHGIANENTTINLYGPAFNVLVASDLLGYVSDGKQTTVGFDGHRYDFVSRWIGGNSYTYKTIPSDSNAWKEWWRMFTDPDNPHTCLGDANAICNTLYGSSHLKQKP	not soluble
AHHHHHHGSYKILEKKEIAMRNTWYKVYAPHVAKKVQPGQFVIVRAFPNGERIPLTPVMWDREEGWIVLIVFTRGKTTMRMAVELKEGDSLLNVAGPLGTPVPMEKFGKILAIGAYTGIVEVYPIAKAWQEIGNDVTTLHVTFEPMVILKEELEKAVTRHIVEPVPLNPNQDFLANMKNVSQRLKEKVRELLESEDWDLVFMVGPVGDQKQVFEVVKEYGVPMKVDLHPIMVDGTGMCGACRVTVGGEVKFACVDGPEFDAYQVDWDELIHRVGFYAKLEKLALEKYMEELKAKGVIMPRLIKERVPTPERSVGERVRDFGEVNLGYSWELALREAERCLQCPVEYAPCIKGCPVHINIPGFIKALRENRDNPSKAVREALRIIWRDNTLPAITGRVCPQEEQCEGACVVGKVGDPINIGKLERFVADYAREHGIDDELLLEEIKGIKRNGKKVAIIGAGPAGLTCAADLAKMGYEVTIYEALHQPGGVLTYGIPEFRLPKEILRKELKKLSLLGVEIKTDHIVGKTITIQELLQEYDAVFIGTGAGTPKLPNIPGINLNGIYSANEFLTRINLMKAYKFPEYDTPIVVGKKVVVIGAGNTAMDAARSALRLGAEVTIAYRRGREDMTARIEEVKHAEEEGVKFMFFVNPVEFIGDENGNVKAVKFEKMKPLEERDSRGKRKIVGTGEYITVEADTVIIAIGQTPNKVLWRATPELKVDEWGRIVVDENLMTSIPGVFAGGDAIRGEATVILAMGDGRKAAKAIHQYLSKKGN	soluble
MTLETAFMLPVQDAQHSFRRLLKAMSEPGVIVALHQLKRGWQPLNIATTSVLLTLADNDTPVWLSTPLNNDIVNQSLRFHTNAPLVSQPEQATFAVTDEAISSEQLNALSTGTAVAPEAGATLILQVASLSGGRMLRLTGAGIAEERMIAPQLPECILHELTERPHPFPLGIDLILTCGERLLAIPRTTHVEVC	soluble
MDTQQLINAITPEAYQRLLYAVETGKWPEGTPLSQQQRDSCMQAVMLYQSKHNTQADHMSVGVGGEVVFKSKAELKKRFSEGEEDILRVNPNQEA	not soluble
MSASGLLVEKSGPLSLIQDFGRFGLAHIGITQGGPVDDYAYSWANHLLGNRVNCSAIEITLGNACFIALQDCHLAICGGDLNASVDGHPIANWSDFSIKKGQKLQFGMAKNGLRAYLAVKGGFNVPEHLGSSSTVLREALGGLEANGNALKAGDVLPFDAHSLPNHKPRIMTFRFKPDYNLPITLRVIEGYQCDDFSVEAKEKFYSGSFAISPDSNRMGYRLEGNTVKPPYDGILSEGIALGAIQIPHDGNPIVLLNDHQTIGGYPKLGCVARIDLPRLAQAKPGQKVRFVKGDRQGLQDVWCQWAQFFGY	not soluble
